# Values quoted from earlier work as cited in patent publication US11207433B2, “Imaging agents and uses thereof” (Washington University, priority 2018, dated 2021).
# Bridges are numbered along the chain shown (N, C = ends). Where no end group is shown, it is not given here.
# Biological target: T1, NPR-C receptor (Homo sapiens, UniProt P17342)
# T1 sequence (P17342 27-541): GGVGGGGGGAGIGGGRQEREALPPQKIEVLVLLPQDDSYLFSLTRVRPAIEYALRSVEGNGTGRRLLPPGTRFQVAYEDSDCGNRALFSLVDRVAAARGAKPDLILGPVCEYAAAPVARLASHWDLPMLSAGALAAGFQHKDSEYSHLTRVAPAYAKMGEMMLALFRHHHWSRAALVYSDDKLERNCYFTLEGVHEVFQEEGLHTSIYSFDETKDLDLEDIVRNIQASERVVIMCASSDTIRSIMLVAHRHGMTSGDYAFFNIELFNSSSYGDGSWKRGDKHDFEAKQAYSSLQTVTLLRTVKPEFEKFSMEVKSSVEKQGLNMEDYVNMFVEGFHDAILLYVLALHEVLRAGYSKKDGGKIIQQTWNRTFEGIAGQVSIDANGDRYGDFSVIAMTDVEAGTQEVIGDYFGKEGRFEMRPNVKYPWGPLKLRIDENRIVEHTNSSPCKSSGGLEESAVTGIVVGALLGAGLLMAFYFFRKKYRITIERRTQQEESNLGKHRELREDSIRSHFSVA
# Conditions: in vivo
substance,measurement,value
"^64Cu-DOTA-CANF-Comb: CANF peptide functionalized polymeric nanoparticle, described in U.S. Patent Application Publication No. 2011/0300071 (RSSCFGGRIDRIGAC-NH2; disulfide 4-15; also: conjugated to polymeric nanoparticle, DOTA chelator, 64Cu label)",delay from injection to optimal PET imaging time,~12 h
